The source of these data is patent US20140235553A1 (REGENTS OF THE UNIVERSITY OF COLORADO A BODY CORPRATE, published 2014).

B2: NTD-αB crystallin fusion protein (other)
chain: MGSRVQIRCRFRNSTRDIAIHHPWIRRPFFPFHSPSRLFDQFFGEHLLESDLFPTSTSLSPFYLRPPSFLRAPSWFDTGLSEMRLEKDRFSVNLDVKHFSPEELKVKVLGDVIEVHGKHEERQDEHGFISREFHRKYRIPADVDPLTITSSLSSDGVLTVNGPRKQVSGPERTIPITREEKPAVTAAPKK
notes: also called NTD-HSPB5; A B NgC

Data set [1] deals with the molecule itself. Put plainly: size exclusion chromatography, self-association into oligomeric complexes.
Data set [2] deals with the molecule itself. In words: size exclusion chromatography (Superose 6), self-association into oligomeric complexes.
The target of data set [3] is B2. In words: subunit exchange: AlexaFluor-labeled NTD-αB crystallin with 10-fold molar excess of unlabeled αB crystallin at 37° C., size exclusion FPLC, fluorescence of fractions. (In general: SEC sorts molecules by how far they enter the pores of the column.)

B1: NTD-αA crystallin fusion protein (other)
chain: MGSRVQIRCRFRNSTRDVTIQHPWFKRTLGPFYPSRLFDQFFGEGLFEYDLLPFLSSTISPYYRQSLFRTVLDSGISEVRSDRDKFVIFLDVKHFSPEDLTVKVQDDFVEIHGKHNERQDDHGYISREFHRRYRLPSNVDQSALSCSLSADGMLTFCGPKIQTGLDATHAERAIPVSREEKPTSAPSS
notes: also called NTD modified α-crystallin subunit (αA)
As for B1, the binding result in data set [1] is on record as “binds”. Regarding B2, in data set [2], the binding result is on record as “binds”.

B3: αB-crystallin (HSPB5), no transduction peptide (other)
chain: MDIAIHHPWIRRPFFPFHSPSRLFDQFFGEHLLESDLFPTSTSLSPFYLRPPSFLRAPSWFDTGLSEMRLEKDRFSVNLDVKHFSPEELKVKVLGDVIEVHGKHEERQDEHGFISREFHRKYRIPADVDPLTITSSLSSDGVLTVNGPRKQVSGPERTIPITREEKPAVTAAPKK
notes: also called native αB crystallin; unfused αB crystallin
Consider B3, for which the binding result in data set [3] is given as “binds”.
